Data as given in patent publication US20160289285A1 (Molecular Partners, published 2016).

biological target: T1, human serum albumin (human, UniProt P02768 25-609); test: size exclusion chromatography coupled to static light scattering
T1 construct: For SEC-MALS purified from CSL Behring 20% solution; also called HSA; SA (human)
T1 sequence (P02768 25-609 limits assumed): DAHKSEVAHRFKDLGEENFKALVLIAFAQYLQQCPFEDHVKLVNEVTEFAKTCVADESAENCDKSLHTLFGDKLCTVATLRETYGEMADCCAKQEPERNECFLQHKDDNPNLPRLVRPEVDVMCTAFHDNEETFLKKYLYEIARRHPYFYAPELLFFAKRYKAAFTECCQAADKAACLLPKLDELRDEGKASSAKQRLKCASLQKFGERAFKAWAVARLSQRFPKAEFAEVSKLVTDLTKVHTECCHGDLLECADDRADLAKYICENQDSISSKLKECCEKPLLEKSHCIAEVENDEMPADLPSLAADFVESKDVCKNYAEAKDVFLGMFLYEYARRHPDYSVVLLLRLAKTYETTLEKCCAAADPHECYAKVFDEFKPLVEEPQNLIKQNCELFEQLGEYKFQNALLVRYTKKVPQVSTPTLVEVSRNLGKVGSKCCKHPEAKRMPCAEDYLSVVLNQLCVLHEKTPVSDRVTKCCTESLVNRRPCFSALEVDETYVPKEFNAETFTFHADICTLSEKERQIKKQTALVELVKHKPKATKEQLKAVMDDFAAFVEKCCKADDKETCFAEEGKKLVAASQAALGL

| binding result | Binder |
| --- | --- |
| binds | Protein #102 (designed binder) MRGSHHHHHHGSDLGKKLLEAARAGQDDEVRELLKAGADVNAKDYFSHTPLHLAARNGHLKIVEVLLKAGADVNAKDFAGKTPLHLAANDGHLEIVEVLLKAGADVNAQDIFGKTPADIAADAGHEDIAEVLQKAAGSPTPTPTTPTPTPTTPTPTPTGSDLGKKLLEAARAGQDDEVRILLKAGADVNAKDRYGDTPLHLAADIGHLEIVEVLLKAGADVNAEDYFGNTPLHLAASYGHLEIVEVLLKAGADVNAKDDYGNTPLHLAANTGHLEIVEVLLKAGADVNAQDKSGKTPADLAADAGHEDIAEVLQKAAGSPTPTPTTPTPTPTTPTPTPTGSDLDKKLLEAARAGQDDEVRILLKAGADVNAKDSTGWTPLHLAAPWGHPEIVEVLLKAGADVNAKDFQGWTPLHLAAAVGHLEIVEVLLKAGADVNAQDKSGKTPADLAADAGHEDIAEVLQKAAGSPTPTPTTPTPTPTTPTPTPTGSDLGKKLLEAARAGQDDEVRELLKAGADVNAKDYFSHTPLHLAARNGHLKIVEVLLKAGADVNAKDFAGKTPLHLAANDGHLEIVEVLLKAGADVNAQDIFGKTPADIAADAGHEDIAEVLQKAA |
| binds | Protein #97 (designed binder) MRGSHHHHHHGSDLGKKLLEAARAGQDDEVRILMANGADVNAKDYFSHTPLHLAARNGHLKIVEVLLKAGADVNAKDFAGKTPLHLAANDGHLEIVEVLLKHGADVNAQDIFGKTPADIAADAGHEDIAEVLQKLGSPTPTPTTPTPTPTTPTPTPTGSRSDLGKKLLEAARAGQDDEVRILLKAGADVNAKDRYGDTPLHLAADAGHLKIVEVLLKAGADVNAEDYFGNTPLHLAASAGHLEIVEVLLKAGADVNAKDDAGNTPLHLAANTGHLKIVEVLLKAGADVNAQDKSGKTPADLAADAGHEDIAEVLQKLGSPTPTPTTPTPTPTTPTPTPTGSRSDLDKKLLEAARAGQDDEVRILLKAGADVNAKDYLGWTPLHLAAHEGHLEIVEVLLKAGADVNAKDVSGYTPLHLAAADGHLEIVEVLLKAGADVNAKDNTGWTPLHLSADLGHLEIVEVLLKAGADVNAQDKFGKTAFDISIDNGNEDLAEILQKLGSPTPTPTTPTPTPTTPTPTPTGSRSDLGKKLLEAARAGQDDEVRILMANGADVNAKDYFSHTPLHLAARNGHLKIVEVLLKAGADVNAKDFAGKTPLHLAANDGHLEIVEVLLKHGADVNAQDIFGKTPADIAADAGHEDIAEVLQKLN |

The remaining lines, values behind:

| Binder | binding result |
| --- | --- |
| Protein #109 (designed binder) MRGSHHHHHHGSDLGKKLLEAARAGQDDEVRILMANGADVNAKDYFSHTPLHLAARNGHLKIVEVLLKAGADVNAKDFAGKTPLHLAANDGHLEIVEVLLKHGADVNAQDIFGKTPADIAADAGHEDIAEVLQKLGSPTPTPTTPTPTPTTPTPTPTGSRSDLGKKLLEAARAGQDDEVRILMANGADVNAKDYFSHTPLHLAARNGHLKIVEVLLKAGADVNAKDFAGKTPLHLAANDGHLEIVEVLLKHGADVNAQDIFGKTPADIAADAGHEDIAEVLQKLGSPTPTPTTPTPTPTTPTPTPTGSRSDLGKKLLEAARAGQDDEVRILMANGADVNAKDKDGYTPLHLAAREGHLEIVEVLLKAGADVNAKDKDGYTPLHLAAREGHLEIVEVLLKAGADVNAQDKFGKTAFDISIDNGNEDLAEILQKLGSPTPTPTTPTPTPTTPTPTPTGSRSDLGKKLLEAARAGQDDEVRILMANGADVNAKDKDGYTPLHLAAREGHLEIVEVLLKAGADVNAKDKDGYTPLHLAAREGHLEIVEVLLKAGADVNAQDKFGKTAFDISIDNGNEDLAEILQKLN | binds |
| Protein #110 (designed binder) MRGSHHHHHHGSDLGKKLLEAARAGQDDEVRELLKAGADVNAKDYFSHTPLHLAARNGHLKIVEVLLKAGADVNAKDFAGKTPLHLAANEGHLEIVEVLLKAGADVNAQDIFGKTPADIAADAGHEDIAEVLQKAAGSPTPTPTTPTPTPTTPTPTPTGSDLGKKLLEAARAGQDDEVRELLKAGADVNAKDKSGNTPLHLAARFGHLEIVEFLLKAGADVNAKDETGKTPLHLAAIWGHLEIVEVLLKAGADVNAKDLYGRTPLHLAAKLRHLEIVEVLLKAGADVNAQDKFGKTAFDISIDNGNEDLAEILQKAAGSPTPTPTTPTPTPTTPTPTPTGSDLDKKLLEAARAGQDDEVRELLKAGADVNALDQIGWTPLHLAANYGHLEIVEVLLKAGADVNAKDLWGQTPLHLAAWKGHLEIVEVLLKAGADVNAKDTDGLTPLHLAAIRGHLEIVEVLLKAGADVNAQDKSGKTPADLAADAGHEDIAEVLQKAAGSPTPTPTTPTPTPTTPTPTPTGSDLGKKLLEAARAGQDDEVRELLKAGADVNAKDYFSHTPLHLAARNGHLKIVEVLLKAGADVNAKDFAGKTPLHLAANEGHLEIVEVLLKAGADVNAQDIFGKTPADIAADAGHEDIAEVLQKAA | binds |

biological target: T2, human VEGF-A (human, UniProt P15692-4 27-191, limits assumed); test: SPR (ProteOn)
T2 construct: Recombinant, bought or produced in CHO or Pichia pastoris; also called hVEGF-A
Method: SPR was measured using a ProteOn instrument (BioRad) and measurement was performed according standard procedures known to the person skilled in the art.

T2 sequence (P15692 other isoform, or with tags, fused parts or gaps limits assumed): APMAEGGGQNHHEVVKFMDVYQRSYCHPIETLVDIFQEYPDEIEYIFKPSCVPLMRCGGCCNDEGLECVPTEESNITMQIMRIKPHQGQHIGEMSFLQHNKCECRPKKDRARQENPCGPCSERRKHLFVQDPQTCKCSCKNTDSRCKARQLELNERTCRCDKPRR

| binding result | Kd [nM] | Binder |
| --- | --- | --- |
| binds |  | Protein #14 (designed binder) MRGSHHHHHHGSDLGKKLLEAARAGQDDEVRILMANGADVNTADSTGWTPLHLAAPWGHPEIVEVLLKNGADVNAHDYQGWTPLHLAATLGHLEIVEVLLKHGADVNAQDKFGKTAFDISIDNGNEDLAEILQKAA |
| binds |  | Protein #15 (designed binder) MRGSHHHHHHGSDLGKKLLEAARAGQDDEVRILMANGADVNTADSTGWTPLHLAVPWGHLEIVEVLLKYGADVNAKDFQGWTPLHLAAAIGHQEIVEVLLKNGADVNAQDKFGKTAFDISIDNGNEDLAEILQKAA |
|  | 0.141 | Protein #16 (designed binder) MRGSHHHHHHGSDLDKKLLEAARAGQDDEVRILMANGADVNAKDSTGYTPLHLAAPWGHLEIVEVLLKAGADVNAKDYQGWTPLHLAAAVGHLEIVEVLLKAGADVNAQDKSGKTPADLAADAGHEDIAEVLQKAA |

The next lines start with the binder.

| Binder | binding result | Kd [nM] |
| --- | --- | --- |
| Protein #22 (designed binder) MRGSHHHHHHGSDLDKKLLEAARAGQDDEVRILMANGADVNAKDSTGWTPLHLAAPWGHLEIVEVLLKAGADVNAKDFQGWTPLHLAAAVGHLEIVEVLLKAGADVNAQDKFGKTAFDISIDNGNEDLAEILQKAA | binds |  |
| Protein #17 (designed binder) MRGSHHHHHHGSDLGKKLLEAARAGQDDEVRILMANGADVNARDSTGWTPLHLAAPWGHPEIVEVLLKNGADVNAADFQGWTPLHLAAAVGHLEIVEVLLKHGADVNAQDKFGKTAFDISIDNGNEDLAEILQKAA | binds |  |
| Protein #21 (designed binder) MRGSHHHHHHGSDLDKKLLEAARAGQDDEVRILLKAGADVNAKDSTGWTPLHLAAPWGHPEIVEVLLKAGADVNAKDYQGWTPLHLAAAVGHLEIVEVLLKAGADVNAQDKSGKTPADLAADAGHEDIAEVLQKAA | binds |  |
| Protein #12 (designed binder) MRGSHHHHHHGSDLGKKLLEAARAGQDDEVRILMANGADVNAFDWMGWTPLHLAAHEGHLEIVEVLLKNGADVNATDVSGYTPLHLAAADGHLEIVEVLLKHGADVNTKDNTGWTPLHLSADLGHLEIVEVLLKNGADVNAQDKFGKTAFDISIDNGNEDLAEILQKAA |  | 0.094 |
| Protein #13 (designed binder) MRGSHHHHHHGSDLDKKLLEAARAGQDDEVRILLKAGADVNAKDYLGWTPLHLAAHEGHLEIVEVLLKAGADVNAKDVSGYTPLHLAAADGHLEIVEVLLKAGADVNAKDNTGWTPLHLSADLGHLEIVEVLLKAGADVNAQDKFGKTAFDISIDNGNEDLAEILQKAA |  | 0.096 |
